Assay: Phase 1 clinical study of BA3011: safety (adverse events, DLT, MTD, RP2D)
Type: in vivo, human
Description: MTD evaluation will be based on the DLT-evaluable Population. The DLT-evaluable Population includes all patients enrolled in Phase 1 dose escalation who receive at least 1 full assigned dose of BA3011 and complete the safety follow-up through the DLT-evaluation period (defined as the time period from the first dose of BA3011 through 21 days post Dose 1) or experience any DLT during the DLT-evaluation period. Non-DLT-evaluable patients will be replaced. The safety evaluation will be based on the As-Treated Population. Adverse events (AEs) will be coded by Medical Dictionary for Regulatory Activities (MedDRA) and graded according to the NCI CTCAE v4.03, and the type, incidence, severity, and relationship to each IP will be summarized. If any associations of interest between AEs and baseline characteristics are observed, additional stratified results may be presented. All treatment-emergent AEs will be summarized by MedDRA system organ class and preferred term. Laboratory abnormalities with toxicity grades according to the NCI CTCAE will be summarized.
A DLT is defined as meeting 1 of the following criteria during the 21-day DLT evaluation period or a treatment-related toxicity of any grade requiring dose delay of 1 week or more between the first and second cycles: • Non-hematologic Toxicity • For non-hematologic toxicities, DLT will be defined as any National Cancer Institute (NCI) Common Terminology Criteria for Adverse Events (CTCAE) v4.03 (published 14 Jun. 2010) Grade 3 or greater toxicity at least possibly related to treatment, except for: • Grade 3 fatigue. • Grade 3 nausea and vomiting lasting less than 24 hours. • Grade 3 non-hematologic laboratory abnormalities that are asymptomatic and resolve to Grade 1 or baseline (if the patient entered the study with existing toxicity) within 14 days. • Grade 3 or 4 allergic or hypersensitivity reaction at first occurrence in the absence of prophylactic steroid that resolves in less than 6 hours with appropriate clinical intervention
• DLT for hematologic toxicity, using NCI CTCAE v4.03, will be defined as: • Grade 4 neutropenia lasting greater than 7 days. • Grade 3 or 4 febrile neutropenia. • Grade 4 platelet count (<25,000/mm3) at any time.
Study BA3011-001 was an ongoing, multi-center, open-label, Phase 1/2 first-in-human trial of BA3011.
In Phase 1 (NCT03425279), BA3011 was administered once (Q3W) or twice (2Q3W) every 3 weeks via intravenous (IV) infusion.

[1] = All TEAEs, All Grades, sarcoma patients, Phase 1
[2] = All TEAEs, Grade 3, sarcoma patients, Phase 1
[3] = All TEAEs, Grade 4, sarcoma patients, Phase 1
[4] = Related TEAEs, All Grades, sarcoma patients, Phase 1
[5] = Related TEAEs, Grade 3, sarcoma patients, Phase 1
[6] = Related TEAEs, Grade 4, sarcoma patients, Phase 1
[7] = Total, 26 sarcoma patients, Phase 1

B1: Mecbotamab vedotin (conjugate, chains of the INN, looked up)
VH: EVQLVQSGAEVKKPGATVKISCKVSGYSFWGATMNWIRQPPGKGLEWIGLIKPSNGGTSYNQKFKGRVTISADKSISTAYLQWSSLKASDTAMYYCAHGHYESYEAMDYWGQGTLVTVSS
VL: DIQMTQSPSSLSASVGDRVTITCKASQDVVSAVAWYQQKPGQAPRLLIYWQDTRHTGVPSRFSGSGSGTEFTLTISSLQPDDFATYYCQEHFSPPLTFGQGTKVEIK
modifications: MC-vc-PAB-MMAE conjugate
Stomatitis, % [1]: (3.8) %
Vomiting, % [1]: (23.9) %
Anemia, % [2]: (7.7) %
Aspartate aminotransferase increased, % [2]: (3.8) %
Blood bilirubin increased, % [2]: (3.8) %
Constipation, % [2]: (3.8) %
Hypokalemia, % [2]: (11.5) %
Hyponatremia, % [2]: (7.7) %
Lymphocyte count decreased, % [2]: (3.8) %
Nausea, % [2]: (3.8) %
Neutrophil count decreased, % [2]: (15.4) %
Patients with at least one TEAE, % [2]: (57.7) %
Peripheral neuropathy, % [2]: (3.8) %
Stomatitis, % [2]: (3.8) %
Vomiting, % [2]: (3.8) %
Neutrophil count decreased, % [3]: 3.8%
Patients with at least one TEAE, % [3]: 7.7%
on-target toxicity to normal AXL-expressing tissue (Phase 1): No clinically meaningful on-target toxicity was observed
rate of constipation (Phase 1): low
dose-limiting toxicities (Phase 1, highest dose tested): limited to monomethyl auristatin E (MMAE) conjugate-associated toxicity at the highest dose tested, including reversible neutropenia
SAE related to treatment (grade 2 hepatic encephalopathy) (Phase 1 sarcoma patients): 1 patient
patients with grade 3 related TEAEs (Phase 1 sarcoma patients): Eleven
patients with grade 4 neutropenia (Phase 1 sarcoma patients): 1 patient
treatment-emergent adverse events (TEAEs) leading to death (Phase 1 sarcoma patients): no treatment-emergent adverse events (TEAEs) leading to death
treatment-related TEAEs leading to treatment discontinuation (Phase 1 sarcoma patients): 2 (7.7%) patients
Alanine aminotransferase increased, % [4]: (38.5) %
Alopecia, % [4]: (23.1) %
Anemia, % [4]: (3.8) %
Arthralgia, % [4]: (3.8) %
Aspartate aminotransferase increased, % [4]: (42.3) %
Blood alkaline phosphatase increased, % [4]: (19.2) %
Blood bilirubin increased, % [4]: (3.8) %
Bone pain, % [4]: (3.8) %
Constipation, % [4]: (15.4) %
Decreased appetite, % [4]: (15.4) %
Diarrhea, % [4]: (19.2) %
Fatigue, % [4]: (42.3) %
Hypokalemia, % [4]: (15.4) %
Hyponatremia, % [4]: (3.8) %
Lymphocyte count decreased, % [4]: (7.7) %
Nausea, % [4]: (38.5) %
Neutrophil count decreased, % [4]: (26.9) %
Patients with at least one TEAE, % [4]: (84.6) %
Peripheral neuropathy, % [4]: (15.4) %
Stomatitis, % [4]: (3.8) %
Vomiting, % [4]: (19.2) %
Anemia, % [5]: (3.8) %
Aspartate aminotransferase increased, % [5]: (3.8) %
Blood bilirubin increased, % [5]: (3.8) %
Hypokalemia, % [5]: (11.5) %
Hyponatremia, % [5]: (3.8) %
Lymphocyte count decreased, % [5]: (3.8) %
Nausea, % [5]: (3.8) %
Neutrophil count decreased, % [5]: (15.4) %
Patients with at least one TEAE, % [5]: (42.3) %
Peripheral neuropathy, % [5]: (3.8) %
Stomatitis, % [5]: (3.8) %
Vomiting, % [5]: (3.8) %
Neutrophil count decreased, % [6]: 3.8%
Patients with at least one TEAE, % [6]: 3.8%
Any TEAE, % of patients [7]: (100.0)%
Any TEAE, no. of patients [7]: 26
Any related serious TEAE, % of patients [7]: (3.8%)
Any related serious TEAE, no. of patients [7]: 1
Any serious TEAE, % of patients [7]: (34.6%)
Any serious TEAE, no. of patients [7]: 9
Related TEAE leading to treatment discontinuation, no. of patients [7]: 2
Related TEAEs with CTCAE grade 3 or 4, % of patients [7]: (46.2%)
Related TEAEs with CTCAE grade 3 or 4, no. of patients [7]: 12
TEAE leading to treatment discontinuation, % of patients [7]: (7.7%)
TEAE leading to treatment discontinuation, no. of patients [7]: 2
TEAE with CTCAE grade 3 or 4, % of patients [7]: (65.4%)
TEAE with CTCAE grade 3 or 4, no. of patients [7]: 17
TEAEs leading to death, no. of patients [7]: 0
transient grade 1-2 liver enzyme elevations (seen during cycle 1 treatment): generally did not re-occur upon re-treatment
creatinine levels (throughout treatment): generally unchanged throughout treatment

From patent US20250276075A1, “METHODS OF TREATING AXL-EXPRESSING CANCERS WITH ANTI-AXL ANTIBODIES, ANTIBODY FRAGMENTS AND THEIR IMMUNOCONJUGATES” (BIOATLA, INC., priority 2020, published 2025)
